Results from patent US7037667.

System: fluorescein thiocarbamoyl-labeled (FTC) casein

GST-TMPRSS2 protease domain (AA 255-492), sequence (chain, as listed by the source): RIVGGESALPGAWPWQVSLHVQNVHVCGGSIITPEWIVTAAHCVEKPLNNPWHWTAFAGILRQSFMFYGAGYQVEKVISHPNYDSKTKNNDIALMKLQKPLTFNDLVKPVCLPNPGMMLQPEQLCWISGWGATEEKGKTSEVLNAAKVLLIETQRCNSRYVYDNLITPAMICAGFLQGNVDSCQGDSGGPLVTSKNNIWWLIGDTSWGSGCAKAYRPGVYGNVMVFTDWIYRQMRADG

## GST-TMPRSS2 protease domain (AA 255-492)
  protease activity, fluorescence of FTC-casein (EnzChek protease assay): purified recombinant GST-20P1F12/TMPRSS2 can cleave a universal substrate, namely casein in a dose dependent manner
